Test results published in paper PMC12680535.

B1: NSUN2 (NOP2/Sun RNA methyltransferase family member 2), wild type, in PANC-1 cells [human (endogenous in PANC-1)] / STUB1 (STIP1 homology and U-box containing protein 1), in PANC-1 cells [human (endogenous in PANC-1)] (parent)
chain 1: MKGKEEKEGGARLGAGGGSPEKSPSAQELKEQGNRLFVGRKYPEAAACYGRAITRNPLVAVYYTNRALCYLKMQQHEQALADCRRALELDGQSVKAHFFLGQCQLEMESYDEAIANLQRAYSLAKEQRLNFGDDIPSALRIAKKKRWNSIEERRIHQESELHSYLSRLIAAERERELEECQRNHEGDEDDSHVRAQQACIEAKHDKYMADMDELFSQVDEKRKKRDIPDYLCGKISFELMREPCITPSGITYDRKDIEEHLQRVGHFDPVTRSPLTQEQLIPNLAMKEVIDAFISENGWVEDY
chain 2: MGRRSRGRRLQQQQRPEDAEDGAEGGGKRGEAGWEGGYPEIVKENKLFEHYYQELKIVPEGEWGQFMDALREPLPATLRITGYKSHAKEILHCLKNKYFKELEDLEVDGQKVEVPQPLSWYPEELAWHTNLSRKILRKSPHLEKFHQFLVSETESGNISRQEAVSMIPPLLLNVRPHHKILDMCAAPGSKTTQLIEMLHADMNVPFPEGFVIANDVDNKRCYLLVHQAKRLSSPCIMVVNHDASSIPRLQIDVDGRKEILFYDRILCDVPCSGDGTMRKNIDVWKKWTTLNSLQLHGLQLRIATRGAEQLAEGGRMVYSTCSLNPIEDEAVIASLLEKSEGALELADVSNELPGLKWMPGITQWKVMTKDGQWFTDWDAVPHSRHTQIRPTMFPPKDPEKLQAMHLERCLRILPHHQNTGGFFVAVLVKKSSMPWNKRQPKLQGKSAETRESTQLSPADLTEGKPTDPSKLESPSFTGTGDTEIAHATEDLENNGSKKDGVCGPPPSKKMKLFGFKEDPFVFIPEDDPLFPPIEKFYALDPSFPRMNLLTRTTEGKKRQLYMVSKELRNVLLNNSEKMKVINTGIKVWCRNNSGEEFDCAFRLAQEGIYTLYPFINSRIITVSMEDVKILLTQENPFFRKLSSETYSQAKDLAKGSIVLKYEPDSANPDALQCPIVLCGWRGKASIRTFVPKNERLHYLRMMGLEVLGEKKKEGVILTNESAASTGQPDNDVTEGQRAGEPNSPDAEEANSPDVTAGCDPAGVHPPR

Variants of: B1
Assay: Co-IP (IP: anti-Flag) immunoblot, band quantification
Settings: with STUB1 (STIP1 homology and U-box containing protein 1), MG132 +, n = 3, parent: 1, read off a plot

Row | response (relative intensity) | Variant
1 | 0.3 | chain 2 K692E
2 | 2 | chain 2 K692R
